Target: T1, p53_(125–134)/HLA-A24 pMHC, soluble recombinant (Homo sapiens, HLA-A*24:02, biotin where the biotinylated pMHC was used (site not stated))
T1 construct: HLA-A24 heavy chain (α-chain), recombinant; β2-microglobulin, recombinant; source: biotinylated or non-biotinylated; copies: + +
Assay: ELISA; biotinylated pMHC captured on NeutrAvidin-coated wells; IgG1 in solution, detected with HRP anti-human IgG Fcγ
Conditions: both partners purified

B1: P1C1 (parental clone), human IgG1 (antibody, V domains shown)
VH: QLQLQESGPGLVKPSQTLSLTCAVSGGSISSGGYYWSWIRQRPGKGLEWIGYIYYSGSTYYNPSLKSRLTISVDTSKNQFSLKLSSVTAADTAVYYCARENFGAFDHWGQGTLVTVSS
VL: QAVLTQPSSVSGAPGQRVTISCTGSSSNIGADYETHWYQHLPGTAPKLLIYGNTNRPSGVPHRFSGSKSGTSASLAITGLQAEDEADYYCQSYDSNLSAWVFGGGTKLTIL
notes: heavy framework 1 of the parental clone; heavy CDR1 (Kabat); heavy framework 2, CDR2, framework 3; heavy CDR3 (Kabat); heavy framework 4; light framework 1 of the parental clone; light CDR1 (Kabat); light framework 2, CDR2, framework 3; light CDR3 (Kabat); light framework 4; Human IgG1; From a naive human Fab phage library (Humanyx); also called parental P1C1 antibody; source: HEK293-6E, pTT5 …
B1: binds.

Reference: PMC6879612 (Nature Communications, 2019)
